# B1: Flag-tagged WT STAT5 (mouse STAT5a) [mouse] / DUSP4-PD (phosphatase-dead mutant DUSP4, [mouse] (parent)
# chain 1: MAGWIQAQQLQGDALRQMQVLYGQHFPIEVRHYLAQWIESQPWDAIDLDNPQDRGQATQLLEGLVQELQKKAEHQVGEDGFLLKIKLGHYATQLQNTYDRCPMELVRCIRHILYNEQRLVREANNCSSPAGVLVDAMSQKHLQINQRFEELRLITQDTENELKKLQQTQEYFIIQYQESLRIQAQFAQLGQLNPQERMSRETALQQKQVSLETWLQREAQTLQQYRVELAEKHQKTLQLLRKQQTIILDDELIQWKRRQQLAGNGGPPEGSLDVLQSWCEKLAEIIWQNRQQIRRAEHLCQQLPIPGPVEEMLAEVNATITDIISALVTSTFIIEKQPPQVLKTQTKFAATVRLLVGGKLNVHMNPPQVKATIISEQQAKSLLKNENTRNECSGEILNNCCVMEYHQATGTLSAHFRNMSLKRIKRADRRGAESVTEEKFTVLFESQFSVGSNELVFQVKTLSLPVVVIVHGSQDHNATATVLWDNAFAEPGRVPFAVPDKVLWPQLCEALNMKFKAEVQSNRGLTKENLVFLAQKLFNISSNHLEDYNSMSVSWSQFNRENLPGWNYTFWQWFDGVMEVLKKHHKPHWNDGAILGFVNKQQAHDLLINKPDGTFLLRFSDSEIGGITIAWKFDSPDRNLWNLKPFTTRDFSIRSLADRLGDLNYLIYVFPDRPKDEVFAKYYTPVLAKAVDGYVKPQIKQVVPEFVNASTDAGASATYMDQAPSPVVCPQPHYNMYPPNPDPVLDQDGEFDLDESMDVARHVEELLRRPMDSLDARLSPPAGLFTSARSSLS
# chain 2: MVTMEELREMDCSVLKRLMNRDENGGGGSAGGNGSGSHGALGLLSGGKCLLLDCRPFLAHSAGYIRGSVNVRCNTIVRRRAKGSVSLEQILPAEEEVRARLRSGLYSAVIVYDERSPRAESLREDSTVSLVVQALRRNAERTDICLLKGGYERFSSEYPEFCSKTKALAAIPPPVPPSTNESLDLGCSSCGTPLHDQGGPVEILPFLYLGSAYHAARRDMLDALGITALLNVSSDCPNHFEGHYQYKCIPVEDNHKADISSWFMEAIEYIDAVKDCRGRVLVHSQAGISRSATICLAYLMMKKRVRLEEAFEFVKQRRSIISPNFSFMGQLLQFESQVLTTSCAAEAASPSGPLRERGKATPTPTSQFVFSFPVSVGVHAAPSNLPYLHSPITTSPSC
# Variants of: B1
# Test: co-IP (anti-Flag IP, IB DUSP4) with band intensity quantification
# Settings: HEK-293T cells co-transfected for 24 hr, parent: 3.76e+04
row,response (band intensity (arbitrary units)),Variant
1,48300,chain 1 Y694D
2,44800,chain 1 Y694E
3,43700,chain 1 Y694F

# From article PMC4692422
